In article PMC6491548, “A novel multidomain acyl-CoA carboxylase in Saccharopolyspora erythraea provides malonyl-CoA for de novo fatty acid biosynthesis” (Scientific Reports, 2019):

B1: SACE_4237 (Saccharopolyspora erythraea NRRL 2338) (protein)
chain: MFSRVAIVNRGEAAMRLVHAVRELAAETGERIETVALHTDVDRTATFVREADLRYDLGPASARPYLDLGVLERALVESGADAAWVGWGFVAEDPAFAELCEKIGVTFIGPSAEAMRRLGDKIGAKLLAEEVGVPVAPWSRGEVSDLDGARRAADEIGYPLMLKATAGGGGRGIRVINSEQELTEAYERTRMEAERAFGNGAVFLERLVTGARHVEVQVIADGQGTAWALGVRDCSVQRRNQKIIEESASPVLTAEQSRELKAAAERLARAVEYRGAGTVEFLYHPGEELFAFLEVNTRLQVEHPITEATTGVDLVKAQLHVASGGRLEGEPPAELGHAVEARLNAEDPDRDFAPSPGRIVRLSLPAGPGIRVDTGVSEGDTIPADFDSMIAKIIAYGSDREQALGRLRRAMAQTTVIVAGGATNKSFVLDLLNRDEVVDGSADTGWIDRERAAGGLRSHQHSAIALAAAAVEAYEDAELAARQQFLSTAHGGRPQVRHETGRPLELKLRDESYRVLVARVGHQRYRIGIDTGSQQHTADVEIERFDSHTGQITVNGQRFRLVTDTHGPVHLVEVDGVTHRVSQDEGGVLRSPAPALVVATPVEIGEEVEAGAPVLVLESMKMETVLRAPFRARLRERMVAAGSQIETGAPLLRLEPVGDQEAAEEAEAATPVELALPVAPSARDAHERAARGLQDLRSVLLGFDVDPHDEQRVLDDYLAARAELVAAGQRPLDGEIELLQVFADLSELSRNRPAGEEAKADTRVHSPREYFHTYLQSLDVERAGLSETFQQRLLRVLGHYGVEGADRTPELEEAVFRIFLAQQRAASDAAVVTTLLGHWLTEVPPPGETRTAAGLVLEHLVAATQLRFPVVCDLARTVVFHWFAQPMLRRNRAEVYSVVRGHLRHLDAHPDAHDRAERIAEMVGTAEPLVRLLGQRIGREGTDPAPLLEVLTRRYYGNRALDGVRTTRVAGSTAVVAEYQDEHPRVVATAVDFAALPEAVRAIGELAADGDLVADIYLTWADQPEDSDAMAAELGEVLGAQGLPGQVGRITTTVAGRSGAVMHHHFTFEPASEGVAEQRLIRGLHPLIAERLQLRRWRDFDLTRLPSADEEVYLFRSVARENPSDERFVAMAQVRDLTPLRDDEGRLVALPAAEGVLTGCLDAIRKVQARVPARQRSSTNRIVIYVWPPVELTSEELRALGRRVLPTTAGAGLEEVLFLGRRRDRETGELREVAVRVGYEAGSEPRMSVGEPPTERIEPLNSYRQKVLRAAKRGTVYPYELTGMLAGGQGTFVEHDLDADGVLVPVDRPKGQNSAAIVAGVVTTPTERHPEGVTRVVLLGDPTKSLGALSEPECSRVIAALDLAERMRVPLEWFALSAGARISMDSGTENMDWVAAALKRIVHFTQDGGEINVVVAGINVGAQPYWNAEATMLMHTKGILVMTPDSAMVLTGKQSLDFSGGVSADDNFGIGGYDRVMGPNGQAQYWAPNLAAAREVLMSHYDHTYVVPGEEAPRQAATTDPRDRDICDYPHEFAGSDFTTVGEIFSATANPDRKKSFDIRTVMRALADQDHPVLERWAGMADADTAAVQDVHLGGHPVCLLGIESRPVPRHGFPPTDGPDTYTAGTLFPRSSKKAARAINAASGNRPLVVLANLSGFDGSPESMRKLQLEYGAEIGRAIVNFRGPIVFCVISRYHGGAFVVFSKALNPNMTVLAVEGSYASVIGGAPAAAVVFSGEVNDRTAKDQRVRDLEARLAEAGDADRTALTLELAETRRAVHAEKLGEVAAEFDRVHSVQRAVEVGSVDAIVRADELRPQIIEAIEKGMLPQ
notes: full-length gene, N-terminal His6 tag, E. coli BL21λ(DE3) with pCY216 (biotin ligase)
B2: SACE_4237 multidomain acyl-CoA carboxylase (enzyme, Saccharopolyspora erythraea, UniProt A4FHI1 1-1827, looked up)
chain: B1 chain
modifications: biotinylated (co-expressed biotin ligase from pCY216 to improve biotinylation; residue not stated)
notes: SACE_4237, multidomain acyl-CoA carboxylase (BC, BCCP, central region, CT) of Saccharopolyspora erythraea NRRL23338, about 200 kDa; gene amplified from chromosomal DNA with an NdeI site at the translational start codon and a SpeI site downstream of the stop codon; Eluted from size exclusion as a dimer (peak 1, 404 kDa) and a monomer (peak 2, 186.9 kDa); The row is of the protomer with itself; …

Key:
purified protein [1] = substrate: CCC(=O)SCCNC(=O)CCNC(=O)[C@H](O)C(C)(C)COP(=O)(O)OP(=O)(O)OC[C@H]1O[C@@H](n2cnc3c(N)ncnc32)[C@H](O)[C@@H]1OP(=O)(O)O; assay: purified protein; assay type: biochemical, Saccharopolyspora erythraea; conditions: 3 mM ATP, 5 mM MgCl2, 50 mM NaH14CO3, 100 mM Hepes pH 7.5, 30 °C
purified protein [2] = substrate: CC(=O)SCCNC(=O)CCNC(=O)[C@H](O)C(C)(C)COP(=O)(O)OP(=O)(O)OC[C@H]1O[C@@H](n2cnc3c(N)ncnc32)[C@H](O)[C@@H]1OP(=O)(O)O; assay: purified protein; assay type: biochemical, Saccharopolyspora erythraea; conditions: 3 mM ATP, 5 mM MgCl2, 50 mM NaH14CO3, 100 mM Hepes pH 7.5, 30 °C
[3] = molecular target: the molecule itself; assay: SEC; Superdex 200 10/300 GL in 50 mM Hepes pH 7.5, 150 mM NaCl, 20% glycerol; calibrated with molecular mass standards; two peaks, dimer (404 kDa) and monomer (186.9 kDa)

Protein	Km (purified protein [1])	Vmax (purified protein [1])	kcat (purified protein [1])	kcat/Km (purified protein [1])	Km (purified protein [2])	Vmax (purified protein [2])	kcat (purified protein [2])	kcat/Km (purified protein [2])	stoichiometry N [3]
B1	98 ± 1 µM	0.00016 µmol/min	0.052 ± 0.002 s⁻¹	520 ± 40 M⁻¹ s⁻¹	168 ± 1 µM	0.00043 µmol/min	0.143 ± 0.004 s⁻¹	850 ± 30 M⁻¹ s⁻¹	–
B2	–	–	–	–	–	–	–	–	2
